The target of series [1] is CD38 TALEN Left (artificial) (UniProt Q56830). The experiment in a line: cell_activity. The note with it: paired with CD38 TALEN Right; simultaneous electroporation with TRAC and CD52 TALEN.
In series [2] the target is CD38 TALEN Right (artificial) (UniProt Q56830). The experiment in a line: cell_activity. As to conditions: paired with CD38 TALEN Left; simultaneous electroporation with TRAC and CD52 TALEN.

Take CD38 left half-site: the activity (% CD38-negative cells) in series [1] came to 66.1.

Substance CD38 right half-site came in with an activity (% CD38-negative cells) in series [2] of 66.1.

These data come from patent publication US20200208174.
